Experimental data: patent US20160347859A1 (KATHOLIEKE UNIVERSITEIT LEUVEN, published 2016)

Tests used:
mouse TAFI = biological target: T1, mouse TAFI (mouse, UniProt Q9JHH6 22-422); experiment: sandwich ELISA: plate coated with recombinant mouse PAI-1, diabody, mouse TAFI, HRP-conjugated MA-TCK32G12
T1 construct: also called Carboxypeptidase B2 (CPB2)
T1 sequence (looked up): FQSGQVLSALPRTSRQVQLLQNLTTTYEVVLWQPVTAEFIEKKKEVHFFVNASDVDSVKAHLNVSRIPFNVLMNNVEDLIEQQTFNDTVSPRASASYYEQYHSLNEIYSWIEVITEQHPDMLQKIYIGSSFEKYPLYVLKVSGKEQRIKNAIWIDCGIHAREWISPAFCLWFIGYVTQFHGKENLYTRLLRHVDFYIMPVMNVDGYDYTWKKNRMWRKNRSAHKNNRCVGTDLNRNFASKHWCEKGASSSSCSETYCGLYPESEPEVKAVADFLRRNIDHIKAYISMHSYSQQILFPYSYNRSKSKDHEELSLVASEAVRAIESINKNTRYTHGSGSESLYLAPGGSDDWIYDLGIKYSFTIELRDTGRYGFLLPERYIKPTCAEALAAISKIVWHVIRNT
Procedure: (§1) Db-TCK26D6x33H1F7 (0.8 mg/kg) was administered IV via tail vein injection in mice (n=6). Prior to the experiment, blood was withdrawn on 0.38% trisodium citrate (=pre-sample). Post injection, blood was withdrawn on 0.38% trisodium citrate at several time points: 5 min, 45 min, 3 hours, 6 hours and 24 hours. Diabody concentrations in corresponding plasma samples were determined by an ELISA based on the simultaneous binding of the diabody towards PAI-1 and TAFI. Wells of polystyrene microtiter plates were incubated with 200 μl recombinant mouse PAI-1 in PBS (pH 7.4; 4 μg/ml) for 72 hours at 4° C., emptied and treated for two hours with PBS supplemented with 1% (m/v) bovine serum albumin. After washing, serial two-fold dilutions (180 μl) of plasma samples were added to the wells and incubated overnight at 4° C. Then, the wells were washed and incubated with 170 μl mouse TAFI (0.1 μg/ml) for 2 hours at room temperature. Subsequently, plates were washed and 160 μl HRP-conjugated MA-TCK32G12 (directed against TAFI) was added to the wells followed by incubation for 2 hours at room temperature. All washing steps were performed with PBS containing Tween 80 (0.002%) and dilutions were made in PBS containing Tween 80 (0.002%) and bovine serum albumin (0.1% m/v). […] The absorbance was measured at 492 nm. […]

mouse PAI-1 = biological target: T2, mouse PAI-1 (mouse, UniProt P22777 23-402); experiment: as above
T2 construct: also called recombinant mouse PAI-1
T2 sequence (looked up): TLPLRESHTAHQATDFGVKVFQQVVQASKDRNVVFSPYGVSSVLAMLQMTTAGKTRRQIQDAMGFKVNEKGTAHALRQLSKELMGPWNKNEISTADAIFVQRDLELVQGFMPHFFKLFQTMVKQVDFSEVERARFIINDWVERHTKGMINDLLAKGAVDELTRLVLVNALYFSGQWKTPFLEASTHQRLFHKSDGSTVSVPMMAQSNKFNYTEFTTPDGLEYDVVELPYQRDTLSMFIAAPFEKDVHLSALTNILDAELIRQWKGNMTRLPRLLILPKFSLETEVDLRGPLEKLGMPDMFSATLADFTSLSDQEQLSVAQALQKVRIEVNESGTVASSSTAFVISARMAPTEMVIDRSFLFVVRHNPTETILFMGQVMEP
Procedure: as §1

B1: Db-TCK26D6x33H1F7 (bispecific antibody)
chain 1: QVQLQQSGPELVKPGASVKISCKASGYTFTDNNMDWAKQSHGKSLEWIGSIYSNNGGTIYNQKFKGKATLNVDTSSSTAYMELRSLTSEDTAVYYCAREMSDGPYWFFDVWGTGTTVTVSGAKTTPKLGGDIQMTQSPSSLSASLGDRVTISCRASQDISNFLDWYQQKPDGTVKLLIYYTSRLHSGVPSRFSGSGSGTDYSLTISKLEQEDIATYFCQQGNTFPPTFGGGTKLEIKRADAAAAGSEQKLISEEDLNSHHHHHH
chain 2: QVQLQQSGAEVVKPGASVKLACTASGFNIKDTYIHWVKQGPEQGLEWIGRIDPANGNTKYDSKFQDKATITADTSSNTAYLHLSSLTSEDTAVYYCVRGDYDYVYFDYWGQGTTVTVSSAKTTPKLGGDIQMTQSPASLSVSVGETVTITCRASENIFRNLVWYQQKQGKSPQLLVYSATNLVDGVPSRFSGSGSGTQYSLKINSLQSEDFGSYYCQHFWGTPRTFGGGTKLEIKRADTAPTGSEQKLISEEDLNSHHHHHH
notes: also called diabody
B1: binds (mouse TAFI); binds (mouse PAI-1).
